Laboratory results: US9107936B2, “Antagonists of GRASP55 for use as a medicament” (Institut National de la Sante et de la Recherche Medicale …, priority 2012, dated 2015)

Columns and labels:
JAM-C ΔPDZbm = molecular target: T1, JAM-C ΔPDZbm (Mus musculus, UniProt Q9D8B7); assay: yeast two hybrid interaction of Grasp55 constructs with JAM-C ΔPDZbm; format: binding, murine; set-up: key: Symbols “+++” and “−” indicates the growth of yeast on selective media as shown in the FIGURE 13; Symbols “+++” and “−” indicates the growth of yeast on selective media as shown in the FIGURE 13
T1 construct: amino-acids 263 to 310 of murine JAM-C; expressed in transfected cells; host or cells: AH109 yeast strain
T1 sequence (Q9D8B7 263-307 limits assumed): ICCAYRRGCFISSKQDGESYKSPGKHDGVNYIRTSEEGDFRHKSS
Source text: (§1) The different GRASP55 constructs were cloned into pGBT9 GW vector (Ga14 DNA-binding domain fusion vector, Trp) as well in the pACT2 GW vector (Gal4 DNA-activation domain fusion vector, Leu) using the Gateway technology (Invitrogen). Plasmids were then co-transformed in AH109 yeast strain (/MATa, trp1-901, leu2-3, 112, ura3-52, his3-200, gal4/A, /gal80/A, /LYS2::GAL1//UAS//-GAL1//TATA//-HIS3, GAL2//UAS//-GAL2//TATA//-ADE2, URA3::MEL1//UAS//-MEL1//TATA//-lacZ, MEL1/) in accordance with the previously described transformation protocol (Chien et al. 1991. Proc Natl Acad Sci USA. 88:9578-82). Following co-transformation with the two vectors containing the different constructs (as well as the empty vector to test self activation), yeasts were plated onto Synthetic Complete (SC) medium minus Leucine (−L), minus Tryptophan (−W), minus Histidine (−H) and incubated at 30° C. for 4 to 5 days. All yeast media were prepared as previously described.
(§2) In examples 2, the inventors have previously shown that interaction between Grasp55 and C-terminal part of JAM-C requires the peptidic sequence between residues 1 to 160 of Grasp55 (PDZI+II) but cannot occur with residues 1 to 79 of Grasp55 (PDZI) by yeast two hybrid and ELISA assay (FIGS. 2 and 8). In the present example, the interaction sites between JAMs or metalloproteinases involved in JAM regulation and Grasp55 have been mapped using new constructs. To this end, yeast two-hybrid and GST fusion proteins encompassing residues 1 to 107, 108 to 208, and 1 to 208 corresponding respectively to the PDZI′, PDZII′ and PDZI′+II′ constructs have been generated. The former PDZII construct (residues 80 to 160) have also been used to test interaction with the C-terminal sequences of ADAM 10 (of sequence SEQ ID NO: 41) and ADAM 17 (of sequence SEQ ID NO: 42) known to regulate JAM-A and JAM-C release (Table 1). GST fusion proteins were produced and yeast two-hybrid assay was performed as previously described in example 1.

ADAM10 = molecular target: T2, ADAM10 (Mus musculus, UniProt O35598, DEL741-741); assay: yeast two hybrid interaction of Grasp55 constructs with ADAM10 C-terminal sequence; format: binding, murine; set-up: key: Symbols “+++” and “−” indicates the growth of yeast on selective media as shown in the FIGURE 13; Symbols “+++” and “−” indicates the growth of yeast on selective media as shown in the FIGURE 13
T2 construct: expressed in transfected cells; host or cells: AH109 yeast strain
T2 sequence (O35598 with tags, fused parts or gaps DEL741-741): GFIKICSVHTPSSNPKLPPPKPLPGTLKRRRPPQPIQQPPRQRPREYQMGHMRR
Source text: as §1, §2

JAM-C = molecular target: T3, JAM-C (Mus musculus, UniProt Q9D8B7); assay: yeast two hybrid interaction of Grasp55 constructs with JAM-C; format: binding, murine; set-up: key: Symbols “+++” and “−” indicates the growth of yeast on selective media as shown in the FIGURE 13; Symbols “+++” and “−” indicates the growth of yeast on selective media as shown in the FIGURE 13
T3 construct: amino-acids 263 to 310 of murine JAM-C; expressed in transfected cells; host or cells: AH109 yeast strain
T3 sequence (Q9D8B7 263-310): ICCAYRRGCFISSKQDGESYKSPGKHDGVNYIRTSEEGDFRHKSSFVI
Source text: as §1, §2

JAM-B = molecular target: T4, JAM-B (Mus musculus, UniProt Q9JI59); assay: yeast two hybrid interaction of Grasp55 constructs with JAM-B; format: binding, murine; set-up: key: Symbols “+++” and “−” indicates the growth of yeast on selective media as shown in the FIGURE 13; Symbols “+++” and “−” indicates the growth of yeast on selective media as shown in the FIGURE 13
T4 construct: amino-acids 258 to 298 of murine JAM-B; expressed in transfected cells; host or cells: AH109 yeast strain
T4 sequence (Q9JI59 258-298): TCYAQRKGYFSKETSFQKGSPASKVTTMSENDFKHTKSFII
Source text: as §1, §2

JAM-B ΔPDZbm = molecular target: T5, JAM-B ΔPDZbm (Mus musculus, UniProt Q9JI59); assay: yeast two hybrid interaction of Grasp55 constructs with JAM-B ΔPDZbm; format: binding, murine; set-up: key: Symbols “+++” and “−” indicates the growth of yeast on selective media as shown in the FIGURE 13; Symbols “+++” and “−” indicates the growth of yeast on selective media as shown in the FIGURE 13
T5 construct: amino-acids 258 to 298 of murine JAM-B; expressed in transfected cells; host or cells: AH109 yeast strain
T5 sequence (Q9JI59 258-295 limits assumed): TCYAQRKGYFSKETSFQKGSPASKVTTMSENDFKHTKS
Source text: as §1, §2

JAM-A ΔPDZbm = molecular target: T6, JAM-A ΔPDZbm (Mus musculus, UniProt O88792, R268T); assay: yeast two hybrid interaction of Grasp55 constructs with JAM-A ΔPDZbm; format: binding, murine; set-up: key: Symbols “+++” and “−” indicates the growth of yeast on selective media as shown in the FIGURE 13; Symbols “+++” and “−” indicates the growth of yeast on selective media as shown in the FIGURE 13
T6 construct: amino-acids 260 to 299 of murine JAM-A; expressed in transfected cells; host or cells: AH109 yeast strain
T6 sequence (O88792 260-297 R268T): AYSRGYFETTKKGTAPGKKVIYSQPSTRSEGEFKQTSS
Source text: as §1, §2

JAM-A = molecular target: T7, JAM-A (Mus musculus, UniProt O88792, R268T); assay: yeast two hybrid interaction of Grasp55 constructs with JAM-A; format: binding, murine; set-up: key: Symbols “+++” and “−” indicates the growth of yeast on selective media as shown in the FIGURE 13; Symbols “+++” and “−” indicates the growth of yeast on selective media as shown in the FIGURE 13
T7 construct: amino-acids 260 to 299 of murine JAM-A; expressed in transfected cells; host or cells: AH109 yeast strain
T7 sequence (O88792 260-300 R268T): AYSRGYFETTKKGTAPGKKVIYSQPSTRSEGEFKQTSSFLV
Source text: as §1, §2

ADAM17 = molecular target: T8, ADAM17 (Mus musculus, UniProt Q9Z0F8, A775V/P752S); assay: yeast two hybrid interaction of Grasp55 constructs with ADAM17 C-terminal sequence; format: binding, murine; set-up: key: Symbols “+++” and “−” indicates the growth of yeast on selective media as shown in the FIGURE 13; Symbols “+++” and “−” indicates the growth of yeast on selective media as shown in the FIGURE 13
T8 construct: expressed in transfected cells; host or cells: AH109 yeast strain
Source text: as §1, §2

B16F10 cells [1] = assay: wound healing assay (cell migration); format: cell-based, mouse; details: B16F10 stably transfected with shRNA; shctrl 249±5; Mean+/−SEM
Description: Transient transfections were performed on a 50% confluent monolayer of B16F10 cells with either 10 nM of siRNA or 5 μg of shRNA against luciferase used as a control or shRNA against GRASP55 in Lipofectamine RNAimax (Invitrogen). Transfection efficiency was monitored at 24 h by qRT-PCR and Western blots for the expression of GRASP55 transcript or protein. For selection of stable transfectants, cells were grown in DMEM containing 10 μg/ml of puromycine (Sigma Aldrich) starting 48 h after transfection.
For in vitro wound healing assays, 80% confluent monolayers of wild-type B16F10 cells or B16F10 cells transfected with various siRNA or shRNA were grown in both chambers of Ibidi culture inserts with defined cell free gaps. Cells were subjected to serum starvation for 24 h, before wounds were created by removing Ibidi culture inserts that define cell gaps of 400 μm. The wound healing was carried out for 8 h in complete DMEM medium and was recorded at various times after wounding. Analysis of wound closure was performed using Metamorph software and is expressed as mean speed per minute.

B16F10 cells [2] = assay: ELISA of soluble JAM-C in cell culture supernatant; format: cell-based, mouse; details: B16F10 control 0.27±0.02; mean±SEM
Description: An ELISA was designed to determine the concentration of soluble JAM-C in cell culture supernatants. Ninety-six-well plates (Nalge Nunc International) were coated overnight at room temperature with rat anti-mouse JAM-C antibody H36 (home-made). Plates were washed and blocked with buffer containing PBS and 2% of bovine albumin for 2 hours. Cell culture supernatants from different cell conditions were incubated during 3 hours. Plates were washed, and polyclonal rabbit anti-JAM-C (501) was added for 1 hour at room temperature. After three washes, donkey anti-rabbit HRP antibody was put on. To reveal the final read out, the substrate of HRP, tetramethylbenzidine ([…]) is adjoined. The absorbance lecture (D.O at 450 nm) is carried out on a ELISA POLARstar reader.

T8 sequence (Q9Z0F8 693-827 P752S/A775V): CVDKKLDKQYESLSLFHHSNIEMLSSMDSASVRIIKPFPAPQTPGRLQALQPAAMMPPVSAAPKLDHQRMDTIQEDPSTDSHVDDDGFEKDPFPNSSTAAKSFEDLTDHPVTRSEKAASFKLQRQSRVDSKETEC

| interaction with JAM-C ΔPDZbm (yeast growth on selective media) (JAM-C ΔPDZbm) | interaction with ADAM10 (yeast growth on selective media) (ADAM10) | interaction with JAM-C (yeast growth on selective media) (JAM-C) | interaction with JAM-B (yeast growth on selective media) (JAM-B) | interaction with JAM-B ΔPDZbm (yeast growth on selective media) (JAM-B ΔPDZbm) | interaction with JAM-A ΔPDZbm (yeast growth on selective media) (JAM-A ΔPDZbm) | interaction with JAM-A (yeast growth on selective media) (JAM-A) | interaction with ADAM17 (yeast growth on selective media) (ADAM17) | Substance | mean velocity (B16F10 cells [1]) | quantity of soluble JAM-C in cell culture supernatant (B16F10 cells [2]) |
| --- | --- | --- | --- | --- | --- | --- | --- | --- | --- | --- |
| − | − | − | − | − | − | − | − | PDZI: Grasp55 construct, residues 1 to 79 |  |  |
|  |  |  |  |  |  |  |  | shGRASP55: shRNA against mouse GRASP55 in pSUPER.retro, target SEQ ID NO: 11, strands SEQ ID Nos. 12 and 13 (chain 1 CGGUUCAAGAUUAAAUAAATT; chain 2 AATTTATTTAATCTTGAACCG) | 184 ± 6 nm/min | 0.21 ± 0.01 ng/mL |
| − | +++ | − | − | − | − | − | +++ | PDZII: Grasp55 construct, residues 80 to 160 |  |  |
| − | − | +++ | +++ | − | − | +++ | − | PDZI + II: Grasp55 construct, residues 1 to 160 |  |  |
